ChEMBL document CHEMBL4342470, “Detection of Active Granzyme A in NK92 Cells with Fluorescent Activity-Based Probe” (J Med Chem, 2020)

Legend:
Details in all cases: Homo sapiens; call rule not given here
[1] = substrate: CC(=O)N1Cc2ccccc2C[C@H]1C(=O)NCC(=O)N1C2CCCCC2C[C@H]1C(=O)N[C@@H](CCCNC(=N)N)C(=O)Nc1ccc2c(CC(N)=O)cc(=O)oc2c1; experiment: Substrate activity at Granzyme K (unknown origin) expressed in Pichia pastoris incubated for 30 mins by fluorescence based assay
[2] = substrate: CC(=O)N1Cc2ccccc2C[C@H]1C(=O)NCC(=O)N1C2CCCCC2C[C@H]1C(=O)N[C@@H](CCCNC(=N)N)C(=O)Nc1ccc2c(CC(N)=O)cc(=O)oc2c1; experiment: (§1) Substrate activity at Granzyme A (unknown origin) expressed in Pichia pastoris incubated for 30 mins by fluorescence based assay
[3] = substrate: CC[C@H](C)[C@H](NC(C)=O)C(=O)NCC(=O)N1CCC[C@H]1C(=O)N[C@@H](CCCNC(=N)N)C(=O)Nc1ccc2c(CC(N)=O)cc(=O)oc2c1; experiment: as §1

B1: Granzyme K (Homo sapiens), P49863 (protein)
chain: MTKFSSFSLFFLIVGAYMTHVCFNMEIIGGKEVSPHSRPFMASIQYGGHHVCGGVLIDPQWVLTAAHCQYRFTKGQSPTVVLGAHSLSKNEASKQTLEIKKFIPFSRVTSDPQSNDIMLVKLQTAAKLNKHVKMLHIRSKTSLRSGTKCKVTGWGATDPDSLRPSDTLREVTVTVLSRKLCNSQSYYNGDPFITKDMVCAGDAKGQKDSCKGDSGGPLICKGVFHAIVSGGHECGVATKPGIYTLLTKKYQTWIKSNLVPPHTN
Km [1]: Not Active
kcat [1]: Not Active
kcat/Km [1]: Not Active

B2: Granzyme A (Homo sapiens), P12544 (protein)
chain: MRNSYRFLASSLSVVVSLLLIPEDVCEKIIGGNEVTPHSRPYMVLLSLDRKTICAGALIAKDWVLTAAHCNLNKRSQVILGAHSITREEPTKQIMLVKKEFPYPCYDPATREGDLKLLQLMEKAKINKYVTILHLPKKGDDVKPGTMCQVAGWGRTHNSASWSDTLREVNITIIDRKVCNDRNHYNFNPVIGMNMVCAGSLRGGRDSCNGDSGSPLLCEGVFRGVTSFGLENKCGDPRGPGVYILLSKKHLNWIIMTIKGAV
Km [2]: 87.4 µM
kcat [2]: 0.27 s⁻¹
kcat/Km [2]: 3100 M⁻¹ s⁻¹
Km [3]: 450 µM
kcat [3]: 0.035 s⁻¹
kcat/Km [3]: 78 M⁻¹ s⁻¹
